Experiment in all cases: purified protein
Series [1] relates to C[C@H](CCCC(C)(C)O)[C@H]1CC[C@H]2[C@@H]3CCC4=CC(=O)C=C[C@]4(C)[C@H]3CC[C@]12C. Particulars: forward direction, 5 mM ATP, 10 mM MgCl2, 9% (w/v) HPCD, 50 mM Tris/HCl pH 7.8, 30 °C.
Series [2] deals with C[C@H](CCCC(C)(C)OP(=O)(O)O)[C@H]1CC[C@H]2[C@@H]3CCC4=CC(=O)C=C[C@]4(C)[C@H]3CC[C@]12C. The settings on record: reverse direction, 5 mM ADP, 10 mM MgCl2, 9% (w/v) HPCD, 50 mM Tris/HCl pH 7.8, 30 °C, apparent, tested only up to 4 mM, no saturation.
In series [3] the test system is Nc1ncnc2c1ncn2[C@@H]1O[C@H](COP(=O)(O)OP(=O)(O)O)[C@@H](O)[C@H]1O. Particulars: reverse direction, 1 mM 25-phospho-CDO, 10 mM MgCl2, 9% (w/v) HPCD, 50 mM Tris/HCl pH 7.8, 30 °C.
In series [4] the test system is Nc1ncnc2c1ncn2[C@@H]1O[C@H](COP(=O)(O)OP(=O)(O)OP(=O)(O)O)[C@@H](O)[C@H]1O. Particulars: forward direction, 1 mM 25-OH-CDO, 10 mM MgCl2, 9% (w/v) HPCD, 50 mM Tris/HCl pH 7.8, 30 °C.

For one substance, Km results are on record in PMC8449060, “A fully reversible 25-hydroxy steroid kinase involved in oxygen-independent cholesterol side-chain oxidation” (The Journal of Biological Chemistry, 2021).

In the case of “25-HSK (25-hydroxy-steroid kinase) (Sterolibacterium denitrificans)”, the Km was 300 ± 10 µM in series [1], 8000 ± 700 µM in series [2], 35 ± 3 µM in series [3] and 800 ± 50 µM in series [4].

Broadly, the Km is the substrate concentration at which the rate is half of its maximum.
